# Patent US9295724B2, “Stable formulations for parenteral injection of peptide drugs” (Xeris Pharmaceuticals, Inc., priority 2011, dated 2016)
# Columns and labels:
# [1] = Freezing point depression of DMSO solutions by DSC; type: physicochemical; conditions: cooled to −40° C. and heated to 40° C. at 8° C. per minute
# Description: Using PerkinElmer Instruments PYRIS Diamond Differential Scanning Calorimetry (“DSC”), samples were cooled to −40° C. and heated to 40° C. at 8° C. per minute for screening purposes.
# [2] = Effect of pH on insulin solubility in DMSO; type: physicochemical
# Description: These solutions were lyophilized to dryness ([…]) using a conservative cycle and reconstituted to various nominal concentrations in DMSO. Solubility was measured by visual inspection for clarity and turbidity via A630.
Compound,temperature of crystallization (Tc) by DSC [1] [°C],solubility in DMSO ([2]; lyophilized at pH 2),"time to slowly dissolve to a clear solution ([2]; pH memory of 7, lower concentration e.g. 10 mg/mL, DMSO)","solubility in DMSO ([2]; pH memory of 7, lowest concentration tested 10 mg/mL)"
"C[S+](C)[O-] [neat DMSO, dimethylsulfoxide]",18,,,
insulin,,at least 100 mg/mL,about 24 hours,poor solubility
